In the supplement of paper PMC10065799, “High-throughput profiling of sequence recognition by tyrosine kinases and SH2 domains using bacterial peptide display” (eLife, 2023):
One block for each sequence: values may come before it.

Experiments:
AncSZ = test: phosphorylation enrichment, bacterial display (enrichment ratio); higher = better substrate or ligand; peptides without Tyr show the background
EPHB1 = EPHB1 (UniProt P54762); test: as above
EPHB2 = EPHB2 (UniProt P29323); test: as above
FGFR1 = FGFR1 (UniProt P11362); test: as above
FGFR3 = FGFR3 (UniProt P22607); test: as above
Chain of FGFR3 (P22607 whole entry, looked up): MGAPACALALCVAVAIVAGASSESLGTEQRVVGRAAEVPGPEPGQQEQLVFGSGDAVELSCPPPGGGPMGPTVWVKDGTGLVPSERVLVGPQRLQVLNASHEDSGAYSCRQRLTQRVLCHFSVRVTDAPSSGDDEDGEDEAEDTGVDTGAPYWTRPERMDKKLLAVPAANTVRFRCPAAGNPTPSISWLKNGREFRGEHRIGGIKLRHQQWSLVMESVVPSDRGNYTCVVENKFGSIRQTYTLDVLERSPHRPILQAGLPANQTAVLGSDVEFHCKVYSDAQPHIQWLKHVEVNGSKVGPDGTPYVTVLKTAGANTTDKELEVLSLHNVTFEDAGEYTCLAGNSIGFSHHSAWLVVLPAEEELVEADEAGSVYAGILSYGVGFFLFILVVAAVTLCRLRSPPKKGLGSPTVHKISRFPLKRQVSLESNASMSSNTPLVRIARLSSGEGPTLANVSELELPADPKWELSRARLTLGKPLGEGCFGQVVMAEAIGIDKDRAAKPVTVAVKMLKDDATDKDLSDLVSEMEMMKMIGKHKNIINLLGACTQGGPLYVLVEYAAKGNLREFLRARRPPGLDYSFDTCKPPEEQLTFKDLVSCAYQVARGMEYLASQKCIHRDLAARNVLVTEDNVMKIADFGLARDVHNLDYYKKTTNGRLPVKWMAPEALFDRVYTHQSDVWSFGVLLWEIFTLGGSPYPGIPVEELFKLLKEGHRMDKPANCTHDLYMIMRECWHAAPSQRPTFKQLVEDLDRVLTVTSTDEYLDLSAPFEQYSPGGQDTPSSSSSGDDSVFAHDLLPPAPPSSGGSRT

Fer (mouse) = test: as above
Fes = Fes (UniProt P07332); test: as above
Fyn = Fyn (UniProt P06241); test: as above
Chain of Fyn (P06241 whole entry, looked up): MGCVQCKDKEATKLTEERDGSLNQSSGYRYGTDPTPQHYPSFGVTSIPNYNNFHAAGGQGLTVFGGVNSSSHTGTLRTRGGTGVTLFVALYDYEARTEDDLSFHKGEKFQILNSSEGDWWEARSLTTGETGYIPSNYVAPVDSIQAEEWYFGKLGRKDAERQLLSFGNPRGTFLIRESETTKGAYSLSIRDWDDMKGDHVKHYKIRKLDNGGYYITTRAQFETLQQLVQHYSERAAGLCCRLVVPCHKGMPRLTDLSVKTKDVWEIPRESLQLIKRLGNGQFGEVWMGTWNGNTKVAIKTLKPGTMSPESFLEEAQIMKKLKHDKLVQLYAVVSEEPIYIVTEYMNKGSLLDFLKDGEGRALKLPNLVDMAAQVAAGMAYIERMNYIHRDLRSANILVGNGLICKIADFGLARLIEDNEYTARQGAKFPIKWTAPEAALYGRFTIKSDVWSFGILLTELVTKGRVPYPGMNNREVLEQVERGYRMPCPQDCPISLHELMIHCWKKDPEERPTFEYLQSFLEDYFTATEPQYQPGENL

Hck = Hck (UniProt P08631); test: as above
Chain of Hck (P08631 whole entry, looked up): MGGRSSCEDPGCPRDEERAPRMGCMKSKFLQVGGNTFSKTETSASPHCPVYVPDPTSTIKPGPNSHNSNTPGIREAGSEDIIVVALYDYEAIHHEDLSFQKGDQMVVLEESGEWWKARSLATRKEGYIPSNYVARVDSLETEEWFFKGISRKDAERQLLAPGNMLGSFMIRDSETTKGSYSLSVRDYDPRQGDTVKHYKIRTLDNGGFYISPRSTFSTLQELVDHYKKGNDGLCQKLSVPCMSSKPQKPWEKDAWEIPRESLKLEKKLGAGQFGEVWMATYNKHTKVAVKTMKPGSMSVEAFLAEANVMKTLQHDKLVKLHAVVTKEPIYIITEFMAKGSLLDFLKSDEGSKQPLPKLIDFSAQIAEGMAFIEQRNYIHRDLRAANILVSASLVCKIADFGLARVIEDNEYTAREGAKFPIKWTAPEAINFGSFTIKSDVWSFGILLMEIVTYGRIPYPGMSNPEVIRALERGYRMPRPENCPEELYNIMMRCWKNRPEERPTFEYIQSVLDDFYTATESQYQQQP

Jak2 = Jak2 (UniProt O60674); test: as above
Chain of Jak2 (O60674 whole entry, looked up): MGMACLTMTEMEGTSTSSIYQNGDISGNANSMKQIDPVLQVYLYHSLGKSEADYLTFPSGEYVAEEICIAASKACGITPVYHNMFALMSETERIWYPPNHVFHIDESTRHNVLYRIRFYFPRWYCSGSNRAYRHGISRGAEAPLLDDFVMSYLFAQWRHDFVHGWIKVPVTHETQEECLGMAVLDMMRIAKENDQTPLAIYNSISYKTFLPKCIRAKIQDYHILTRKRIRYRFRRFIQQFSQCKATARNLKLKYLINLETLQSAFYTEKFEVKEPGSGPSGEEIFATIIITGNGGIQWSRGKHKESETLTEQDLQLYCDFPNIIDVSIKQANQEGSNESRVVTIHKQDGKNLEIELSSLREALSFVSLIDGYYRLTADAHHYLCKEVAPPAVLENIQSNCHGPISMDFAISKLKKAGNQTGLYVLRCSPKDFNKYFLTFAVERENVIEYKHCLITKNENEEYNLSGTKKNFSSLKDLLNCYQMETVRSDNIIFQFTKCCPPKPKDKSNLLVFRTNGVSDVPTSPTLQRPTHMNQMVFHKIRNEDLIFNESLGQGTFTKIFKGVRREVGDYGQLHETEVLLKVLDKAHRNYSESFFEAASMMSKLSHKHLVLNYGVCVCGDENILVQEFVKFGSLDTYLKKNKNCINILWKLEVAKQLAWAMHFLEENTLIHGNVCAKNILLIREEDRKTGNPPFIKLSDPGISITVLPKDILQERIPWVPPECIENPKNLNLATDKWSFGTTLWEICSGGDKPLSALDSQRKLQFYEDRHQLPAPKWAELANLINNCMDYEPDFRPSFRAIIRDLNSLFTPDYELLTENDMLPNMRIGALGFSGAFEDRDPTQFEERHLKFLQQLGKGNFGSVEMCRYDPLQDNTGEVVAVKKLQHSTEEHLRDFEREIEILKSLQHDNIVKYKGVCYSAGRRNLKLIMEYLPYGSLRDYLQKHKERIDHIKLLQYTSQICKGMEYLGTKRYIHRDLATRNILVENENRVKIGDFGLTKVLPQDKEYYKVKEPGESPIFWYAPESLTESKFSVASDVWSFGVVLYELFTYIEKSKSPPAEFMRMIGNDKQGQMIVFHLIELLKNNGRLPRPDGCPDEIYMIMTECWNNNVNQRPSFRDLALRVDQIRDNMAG

MERTK = MERTK (UniProt Q12866); test: as above
Chain of MERTK (Q12866 whole entry, looked up): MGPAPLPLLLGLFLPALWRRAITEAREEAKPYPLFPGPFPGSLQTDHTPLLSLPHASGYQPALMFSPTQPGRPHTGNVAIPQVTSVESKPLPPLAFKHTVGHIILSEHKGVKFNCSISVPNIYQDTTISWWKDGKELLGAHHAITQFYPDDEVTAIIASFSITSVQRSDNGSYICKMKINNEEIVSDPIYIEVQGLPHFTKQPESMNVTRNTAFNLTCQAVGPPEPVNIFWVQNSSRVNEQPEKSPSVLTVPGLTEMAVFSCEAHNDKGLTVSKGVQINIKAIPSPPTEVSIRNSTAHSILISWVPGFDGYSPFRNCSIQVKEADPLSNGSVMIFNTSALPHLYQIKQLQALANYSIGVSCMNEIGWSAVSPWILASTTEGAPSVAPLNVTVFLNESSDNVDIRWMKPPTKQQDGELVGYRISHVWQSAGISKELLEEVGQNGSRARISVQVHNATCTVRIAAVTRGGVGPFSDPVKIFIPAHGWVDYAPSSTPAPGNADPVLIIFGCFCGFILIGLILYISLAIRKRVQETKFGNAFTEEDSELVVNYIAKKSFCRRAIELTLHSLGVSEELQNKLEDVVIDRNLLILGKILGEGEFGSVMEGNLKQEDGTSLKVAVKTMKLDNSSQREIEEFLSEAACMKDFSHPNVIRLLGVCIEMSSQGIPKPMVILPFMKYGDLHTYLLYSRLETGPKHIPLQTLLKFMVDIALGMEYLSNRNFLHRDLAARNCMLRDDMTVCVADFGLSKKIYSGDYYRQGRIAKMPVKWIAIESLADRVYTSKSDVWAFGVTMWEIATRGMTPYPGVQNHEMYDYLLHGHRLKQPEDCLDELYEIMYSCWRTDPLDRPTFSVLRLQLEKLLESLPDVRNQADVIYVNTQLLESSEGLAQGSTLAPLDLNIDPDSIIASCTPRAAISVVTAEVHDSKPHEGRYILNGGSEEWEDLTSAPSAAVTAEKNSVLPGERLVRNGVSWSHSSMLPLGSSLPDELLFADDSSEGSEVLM

c-Abl (mouse) = test: as above
c-Src = test: as above
Grb2 SH2 = Grb2 SH2 (UniProt P62993); test: SH2 binding enrichment of the phosphorylated peptide, bacterial display (enrichment ratio); higher = better substrate or ligand; peptides without Tyr show the background
SHP2-C SH2 = test: as above
c-Src SH2 = test: as above
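Wherever SH2 binding enrichment of the phosphorylated peptide, bacterial display is given: peptide library displayed on the E. coli surface as eCPX fusions, selected cells deep-sequenced, score is each peptide's frequency after selection divided by its frequency in the input.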
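Wherever phosphorylation enrichment, bacterial display is given: 11-residue human phosphosite peptides and single-mutation variants displayed on the E. coli surface, counted by deep sequencing, each peptide's frequency after selection divided by its frequency in the unselected input library; frequency after pTyr selection over input frequency; kinase dosed for 20-30% of maximal phosphorylation in three min.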

Chain of EPHB2 (P29323 whole entry, looked up): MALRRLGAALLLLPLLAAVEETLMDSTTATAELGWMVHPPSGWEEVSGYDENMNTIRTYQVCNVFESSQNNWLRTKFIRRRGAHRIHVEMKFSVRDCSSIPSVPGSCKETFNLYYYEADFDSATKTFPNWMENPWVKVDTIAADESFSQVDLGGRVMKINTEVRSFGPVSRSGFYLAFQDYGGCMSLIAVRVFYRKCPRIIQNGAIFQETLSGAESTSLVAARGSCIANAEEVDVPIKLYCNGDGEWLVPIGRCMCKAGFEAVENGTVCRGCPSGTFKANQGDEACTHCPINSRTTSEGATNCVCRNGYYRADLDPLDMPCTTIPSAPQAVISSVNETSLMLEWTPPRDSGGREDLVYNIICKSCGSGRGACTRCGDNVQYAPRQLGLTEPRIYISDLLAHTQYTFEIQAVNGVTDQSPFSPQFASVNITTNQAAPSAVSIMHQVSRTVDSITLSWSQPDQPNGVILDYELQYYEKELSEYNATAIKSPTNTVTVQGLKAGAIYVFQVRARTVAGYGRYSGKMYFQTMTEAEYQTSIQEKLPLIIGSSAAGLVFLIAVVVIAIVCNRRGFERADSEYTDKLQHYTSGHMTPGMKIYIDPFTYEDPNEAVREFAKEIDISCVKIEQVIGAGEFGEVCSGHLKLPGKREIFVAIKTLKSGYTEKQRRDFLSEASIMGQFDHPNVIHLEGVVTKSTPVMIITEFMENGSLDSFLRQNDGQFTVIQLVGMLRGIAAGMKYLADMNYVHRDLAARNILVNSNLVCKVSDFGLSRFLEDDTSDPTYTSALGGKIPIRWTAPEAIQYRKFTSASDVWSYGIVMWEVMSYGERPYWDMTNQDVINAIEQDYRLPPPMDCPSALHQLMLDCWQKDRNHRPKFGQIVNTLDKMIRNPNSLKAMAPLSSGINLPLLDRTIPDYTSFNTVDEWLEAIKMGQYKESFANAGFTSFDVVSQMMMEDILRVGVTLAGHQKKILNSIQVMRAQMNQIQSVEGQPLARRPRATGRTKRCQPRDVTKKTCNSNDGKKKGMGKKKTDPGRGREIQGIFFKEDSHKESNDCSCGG

Sequence: EEALHYLTRVE [SET_Y119]
phosphorylation enrichment (AncSZ): 1.02 | phosphorylation enrichment (EPHB1): 0.73 | phosphorylation enrichment (EPHB2): 0.536 | phosphorylation enrichment (FGFR1): 0.47 | phosphorylation enrichment (FGFR3): 0.724 | phosphorylation enrichment (Fer (mouse)): 0.492 | phosphorylation enrichment (Fes): 1.13 | phosphorylation enrichment (Fyn): 0.466 | phosphorylation enrichment (Hck): 0.586 | phosphorylation enrichment (Jak2): 1 | phosphorylation enrichment (MERTK): 0.469 | phosphorylation enrichment (c-Abl (mouse)): 0.748 | phosphorylation enrichment (c-Src): 0.462 | SH2 binding enrichment (Grb2 SH2): 0.758 | SH2 binding enrichment (SHP2-C SH2): 1.16 | SH2 binding enrichment (c-Src SH2): 0.532

Sequence: ERNAHYRTPKI [PTK2B_Y699_R698H]
phosphorylation enrichment (AncSZ): 0.586 | phosphorylation enrichment (EPHB1): 0.583 | phosphorylation enrichment (EPHB2): 0.561 | phosphorylation enrichment (FGFR1): 0.524 | phosphorylation enrichment (FGFR3): 0.473 | phosphorylation enrichment (Fer (mouse)): 0.424 | phosphorylation enrichment (Fes): 0.495 | phosphorylation enrichment (Fyn): 0.367 | phosphorylation enrichment (Hck): 0.332 | phosphorylation enrichment (Jak2): 0.559 | phosphorylation enrichment (MERTK): 0.37 | phosphorylation enrichment (c-Abl (mouse)): 0.615 | phosphorylation enrichment (c-Src): 0.387 | SH2 binding enrichment (Grb2 SH2): 0.707 | SH2 binding enrichment (SHP2-C SH2): 0.611 | SH2 binding enrichment (c-Src SH2): 0.521

Sequence: TVSSDYLHPQY [CCPG1_Y569_F566S]
phosphorylation enrichment (AncSZ): 1.28 | phosphorylation enrichment (EPHB1): 0.43 | phosphorylation enrichment (EPHB2): 0.531 | phosphorylation enrichment (FGFR1): 0.528 | phosphorylation enrichment (FGFR3): 0.54 | phosphorylation enrichment (Fer (mouse)): 0.442 | phosphorylation enrichment (Fes): 0.681 | phosphorylation enrichment (Fyn): 0.365 | phosphorylation enrichment (Hck): 0.407 | phosphorylation enrichment (Jak2): 0.536 | phosphorylation enrichment (MERTK): 0.315 | phosphorylation enrichment (c-Abl (mouse)): 0.521 | phosphorylation enrichment (c-Src): 0.355 | SH2 binding enrichment (Grb2 SH2): 1.21 | SH2 binding enrichment (SHP2-C SH2): 0.88 | SH2 binding enrichment (c-Src SH2): 0.762

Sequence: PIGRKYKKVRF [F8_Y442_R437P]
phosphorylation enrichment (AncSZ): 0.828 | phosphorylation enrichment (EPHB1): 0.557 | phosphorylation enrichment (EPHB2): 0.597 | phosphorylation enrichment (FGFR1): 0.577 | phosphorylation enrichment (FGFR3): 0.368 | phosphorylation enrichment (Fer (mouse)): 0.459 | phosphorylation enrichment (Fes): 0.54 | phosphorylation enrichment (Fyn): 0.763 | phosphorylation enrichment (Hck): 0.553 | phosphorylation enrichment (Jak2): 0.545 | phosphorylation enrichment (MERTK): 0.498 | phosphorylation enrichment (c-Abl (mouse)): 0.661 | phosphorylation enrichment (c-Src): 0.587 | SH2 binding enrichment (Grb2 SH2): 0.653 | SH2 binding enrichment (SHP2-C SH2): 0.648 | SH2 binding enrichment (c-Src SH2): 0.568

Sequence: FVTCTYSPALN [TP53_Y126_S121F]
phosphorylation enrichment (AncSZ): 1.29 | phosphorylation enrichment (EPHB1): 0.603 | phosphorylation enrichment (EPHB2): 0.501 | phosphorylation enrichment (FGFR1): 0.464 | phosphorylation enrichment (FGFR3): 0.71 | phosphorylation enrichment (Fer (mouse)): 0.557 | phosphorylation enrichment (Fes): 1.32 | phosphorylation enrichment (Fyn): 0.449 | phosphorylation enrichment (Hck): 0.516 | phosphorylation enrichment (Jak2): 1.07 | phosphorylation enrichment (MERTK): 0.346 | phosphorylation enrichment (c-Abl (mouse)): 0.828 | phosphorylation enrichment (c-Src): 0.535 | SH2 binding enrichment (Grb2 SH2): 0.887 | SH2 binding enrichment (SHP2-C SH2): 0.655 | SH2 binding enrichment (c-Src SH2): 0.517

Sequence: RDLRTYIMPAH [PNMT_Y256]
phosphorylation enrichment (AncSZ): 0.921 | phosphorylation enrichment (EPHB1): 5.27 | phosphorylation enrichment (EPHB2): 0.815 | phosphorylation enrichment (FGFR1): 0.694 | phosphorylation enrichment (FGFR3): 0.518 | phosphorylation enrichment (Fer (mouse)): 0.419 | phosphorylation enrichment (Fes): 0.866 | phosphorylation enrichment (Fyn): 0.577 | phosphorylation enrichment (Hck): 0.682 | phosphorylation enrichment (Jak2): 0.893 | phosphorylation enrichment (MERTK): 0.572 | phosphorylation enrichment (c-Abl (mouse)): 0.772 | phosphorylation enrichment (c-Src): 0.623 | SH2 binding enrichment (Grb2 SH2): 0.965 | SH2 binding enrichment (SHP2-C SH2): 0.734 | SH2 binding enrichment (c-Src SH2): 0.777

Second part, led by results:

SH2 binding enrichment (Grb2 SH2): 0.766 | SH2 binding enrichment (SHP2-C SH2): 0.602 | SH2 binding enrichment (c-Src SH2): 0.463
Sequence: SVVVPYAPPEV [TP53_Y220_E221A]
phosphorylation enrichment (AncSZ): 0.756 | phosphorylation enrichment (EPHB1): 0.508 | phosphorylation enrichment (EPHB2): 0.499 | phosphorylation enrichment (FGFR1): 0.589 | phosphorylation enrichment (FGFR3): 0.595 | phosphorylation enrichment (Fer (mouse)): 0.474 | phosphorylation enrichment (Fes): 0.814 | phosphorylation enrichment (Fyn): 0.422 | phosphorylation enrichment (Hck): 0.43 | phosphorylation enrichment (Jak2): 0.719 | phosphorylation enrichment (MERTK): 0.423 | phosphorylation enrichment (c-Abl (mouse)): 0.73 | phosphorylation enrichment (c-Src): 0.427

SH2 binding enrichment (Grb2 SH2): 1.74 | SH2 binding enrichment (SHP2-C SH2): 1.85 | SH2 binding enrichment (c-Src SH2): 3.31
Sequence: CTTIHYNFMCD [TP53_Y234_N239D_YF]
phosphorylation enrichment (AncSZ): 0.985 | phosphorylation enrichment (EPHB1): 0.545 | phosphorylation enrichment (EPHB2): 0.499 | phosphorylation enrichment (FGFR1): 0.399 | phosphorylation enrichment (FGFR3): 0.674 | phosphorylation enrichment (Fer (mouse)): 0.49 | phosphorylation enrichment (Fes): 1.11 | phosphorylation enrichment (Fyn): 0.442 | phosphorylation enrichment (Hck): 0.481 | phosphorylation enrichment (Jak2): 1.03 | phosphorylation enrichment (MERTK): 0.424 | phosphorylation enrichment (c-Abl (mouse)): 0.768 | phosphorylation enrichment (c-Src): 0.538
